The record followed here is patent US20030044809A1, “Nucleic acid binding of multi-zinc finger transcription factors” (published 2003).

The labels stand for the following.
B1: FLAG-tagged SIP1 (other, mouse, UniProt Q9R0G7 1-1214, looked up)
chain: MKQPIMADGPRCKRRKQANPRRKNVVNYDNVVDAGSETDEEDKLHIAEDDSLANPLDQDTSPASMPNHESSPHMSQGLLPREEEEEELRESVVEHSWHSGEILQASVAGPEEMKEDYDAMGPEATIQTTINNGTVKNANCTSDFEEYFAKRKLEERDGHAVSIEEYLQRSDTAIIYPEAPEELSRLGTPEANGQEENDLPPGTPDAFAQLLTCPYCDRGYKRLTSLKEHIKYRHEKNEENFSCPLCSYTFAYRTQLERHMVTHKPGTDQHQMLTQGAGNRKFKCTECGKAFKYKHHLKEHLRIHSGEKPYECPNCKKRFSHSGSYSSHISSKKCIGLISVNGRMRNNIKTGSSPNSVSSSPTNSAITQLRNKLENGKPLSMSEQTGLLKIKTEPLDFNDYKVLMATHGFSGSSPFMNGGLGATSPLGVHPSAQSPMQHLGVGMEAPLLGFPTMNSNLSEVQKVLQIVDNTVSRQKMDCKTEDISKLKGYHMKDPCSQPEEQGVTSPNIPPVGLPVVSHNGATKSIIDYTLEKVNEAKACLQSLTTDSRRQISNIKKEKLRTLIDLVTDDKMIENHSISTPFSCQFCKESFPGPIPLHQHERYLCKMNEEIKAVLQPHENIVPNKAGVFVDNKALLLSSVLSEKGLTSPINPYKDHMSVLKAYYAMNMEPNSDELLKISIAVGLPQEFVKEWFEQRKVYQYSNSRSPSLERTSKPLAPNSNPTTKDSLLPRSPVKPMDSITSPSIAELHNSVTSCDPPLRLTKSSHFTNIKAVDKLDHSRSNTPSPLNLSSTSSKNSHSSSYTPNSFSSEELQAEPLDLSLPKQMREPKGIIATKNKTKATSINLDHNSVSSSSENSDEPLNLTFIKKEFSNSNNLDNKSNNPVFGMNPFSAKPLYTPLPPQSAFPPATFMPPVQTSIPGLRPYPGLDQMSFLPHMAYTYPTGAATFADMQQRRKYQRKQGFQGDLLDGAQDYMSGLDDMTDSDSCLSRKKIKKTESGMYACDLCDKTFQKSSSLLRHKYEHTGKRPHQCQICKKAFKHKHHLIEHSRLHSGEKPYQCDKCGKRFSHSGSYSQHMNHRYSYCKREAEEREAAEREAREKGHLEPTELLMNRAYLQSITPQGYSDSEERESMPRDGESEKEHEKEGEEGYGKLRRRDGDEEEEEEEEESENKSMDTDPETIRDEEETGDHSMDDSSEDGKMETKSDHEEDNMEDGM
notes: range 1-1214; Produced in COS1 cells from pCDNA3; tested in total cell extract; also called FLAG-tagged SIP1FS; pCDNA3-SIP1 (Flag-tagged); not shown: FLAG tag at the N-terminus
B2: Myc-tagged full size SIP1 (SIP1FS) (other, mouse, UniProt Q9R0G7 1-1214, looked up)
chain: MKQPIMADGPRCKRRKQANPRRKNVVNYDNVVDAGSETDEEDKLHIAEDDSLANPLDQDTSPASMPNHESSPHMSQGLLPREEEEEELRESVVEHSWHSGEILQASVAGPEEMKEDYDAMGPEATIQTTINNGTVKNANCTSDFEEYFAKRKLEERDGHAVSIEEYLQRSDTAIIYPEAPEELSRLGTPEANGQEENDLPPGTPDAFAQLLTCPYCDRGYKRLTSLKEHIKYRHEKNEENFSCPLCSYTFAYRTQLERHMVTHKPGTDQHQMLTQGAGNRKFKCTECGKAFKYKHHLKEHLRIHSGEKPYECPNCKKRFSHSGSYSSHISSKKCIGLISVNGRMRNNIKTGSSPNSVSSSPTNSAITQLRNKLENGKPLSMSEQTGLLKIKTEPLDFNDYKVLMATHGFSGSSPFMNGGLGATSPLGVHPSAQSPMQHLGVGMEAPLLGFPTMNSNLSEVQKVLQIVDNTVSRQKMDCKTEDISKLKGYHMKDPCSQPEEQGVTSPNIPPVGLPVVSHNGATKSIIDYTLEKVNEAKACLQSLTTDSRRQISNIKKEKLRTLIDLVTDDKMIENHSISTPFSCQFCKESFPGPIPLHQHERYLCKMNEEIKAVLQPHENIVPNKAGVFVDNKALLLSSVLSEKGLTSPINPYKDHMSVLKAYYAMNMEPNSDELLKISIAVGLPQEFVKEWFEQRKVYQYSNSRSPSLERTSKPLAPNSNPTTKDSLLPRSPVKPMDSITSPSIAELHNSVTSCDPPLRLTKSSHFTNIKAVDKLDHSRSNTPSPLNLSSTSSKNSHSSSYTPNSFSSEELQAEPLDLSLPKQMREPKGIIATKNKTKATSINLDHNSVSSSSENSDEPLNLTFIKKEFSNSNNLDNKSNNPVFGMNPFSAKPLYTPLPPQSAFPPATFMPPVQTSIPGLRPYPGLDQMSFLPHMAYTYPTGAATFADMQQRRKYQRKQGFQGDLLDGAQDYMSGLDDMTDSDSCLSRKKIKKTESGMYACDLCDKTFQKSSSLLRHKYEHTGKRPHQCQICKKAFKHKHHLIEHSRLHSGEKPYQCDKCGKRFSHSGSYSQHMNHRYSYCKREAEEREAAEREAREKGHLEPTELLMNRAYLQSITPQGYSDSEERESMPRDGESEKEHEKEGEEGYGKLRRRDGDEEEEEEEEESENKSMDTDPETIRDEEETGDHSMDDSSEDGKMETKSDHEEDNMEDGM
notes: range 1-1214; Produced in COS1 cells from pCS3; tested in total cell extract; also called Myc-tagged SIP1; WT SIP1; not shown: (Myc)6 tag of pCS3 at the N-terminus

Data set [1] deals with SIP1 full size in cells (mouse). The data set is described as follows: cell_activity. The settings on record: luciferase reporter; derepressed by E-box mutations. (In general: In a reporter assay the amount or activity of a reporter protein is the signal.)
The target in data set [2] is B2. The data set can be described thus: EMSA double supershift with anti-Myc and anti-FLAG antibodies, Xbra-WT probe. How it is done: For supershift experiments, the extracts were incubated with anti-Myc (Santa Cruz) or anti-FLAG (Kodak) antibodies. For competition, an excess of unlabeled double-stranded oligonucleotides was added together with the labeled probe. The binding reaction was loaded onto a 4% polyacrylamide gel (acrylamide/bis-acrylamide, 19:1) prepared in 0.5XTBE buffer. Following electrophoresis, gels were dried, and exposed to X-Ray film. All experiments were repeated at least three times.
To address this experimentally, we used a combination of differently tagged SIP1 in supershift experiments in EMSAs. […] The SIP1 complex generated with Myc-tagged SIP1 has a slightly slower migration than the FLAG-tagged complex (the Myc-tag is longer than the FLAG-tag). […] Using an anti-FLAG antibody, only the lower part of the complex corresponding to FLAG-tagged SIP1 is super-shifted, whereas about 50% of the radioactivity remains within the Myc-tagged SIP1 complex. […] Conversely, incubating the extract with an anti-Myc antibody super-shifted only the […] part of the complex corresponding to Myc-tagged SIP1 whereas 50% of the radioactivity is retained within the FLAG-tagged SIP1 complex. […] However, we detected no other super-shifted band corresponding to a potential double super-shift, viz. super-shifted with both anti-Myc- and anti-FLAG-antibodies.
On the technique in general: Mobility shift assays separate free from complexed probe on a gel.

In the data set “FLAG-tagged SIP1” the target is B1. The data set is described as follows: immunoprecipitation with anti-Myc antibody, detection with anti-FLAG antibody. How it is done:
Transfected cells were washed with PBS-O (137 mM NaCl, 2.7 mM KCl, 6.5 mM Na₂HPO₄, 1.5 mM KH₂PO₄), collected in detachment buffer (10 mM Tris pH7.5, 1 mM EDTA, 10% glycerol, with protease inhibitors (Protease inhibitor Cocktail tablets, Boehringer Mannheim)) and pelleted by low spin centrifugation. The cells were then solubilized in 10 mM Tris, pH 7.4, 125 mM NaCl, 1% Triton X-100. For direct electrophoretic analysis, gel sample buffer was added to the cell lysates and the samples were boiled. For other experiments, lysates were first subjected to immunoprecipitation with either anti-Myc or anti-FLAG antibodies. Antibodies were added to aliquots of the cell lysates, which were incubated overnight at 4° C. The antibodies and the bound protein(s) of the cell lysate were coupled as a complex to protein A-Sepharose for 2 hours at 4° C. The immunoprecipitates were washed 4 times in NET buffer (50 mM Tris pH 8.0, 150 mM NaCl, 0.1% NP40, 1 mM EDTA, 0.25% gelatin), resolved by SDS-polyacrylamide (7.5%) gel electrophoresis, and electrophoretically transferred to nitrocellulose membranes. […] Immunoreactive bands were detected with an enhanced chemiluminescence reagent (NEN). […]

E-cadherin promoter reporter gave an activity (% decrease of promoter activity) in data set [1] of 80. On to B1, for which the binding result in data set [2] is “no binding”. As for B2, in the data set with FLAG-tagged SIP1, the binding result was “no binding”.
